Experiments:
Assay in all cases: cell-based or functional assay
[1] = target: AMPKα1(h) (human, UniProt Q13131 1-559)
[2] = target: T1, MST2(h) (human, UniProt Q13188 1-491)
T1 sequence (looked up): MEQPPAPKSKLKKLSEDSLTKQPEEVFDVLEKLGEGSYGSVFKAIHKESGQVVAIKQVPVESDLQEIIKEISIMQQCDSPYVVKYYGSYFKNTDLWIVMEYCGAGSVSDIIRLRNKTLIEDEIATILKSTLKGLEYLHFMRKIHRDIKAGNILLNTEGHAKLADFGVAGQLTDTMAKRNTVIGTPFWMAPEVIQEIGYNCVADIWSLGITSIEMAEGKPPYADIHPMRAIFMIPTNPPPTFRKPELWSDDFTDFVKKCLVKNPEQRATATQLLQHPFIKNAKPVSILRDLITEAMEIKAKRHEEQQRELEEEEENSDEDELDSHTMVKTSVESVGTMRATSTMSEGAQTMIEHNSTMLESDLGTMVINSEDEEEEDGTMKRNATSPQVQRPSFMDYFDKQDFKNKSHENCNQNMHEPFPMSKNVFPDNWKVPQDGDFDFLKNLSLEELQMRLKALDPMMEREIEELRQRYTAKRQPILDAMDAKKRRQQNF

[3] = target: PAK3(h) (human, UniProt O75914 1-559, limits assumed)
[4] = target: PASK(h) (human, UniProt Q96RG2 879-1323, limits assumed)
[5] = target: PKCβII(h) (human, UniProt P05771-2 1-673)
[6] = target: PKCγ(h) (human, UniProt P05129 1-697)
[7] = target: Plk3(h) (human, UniProt Q9H4B4 58-340, limits assumed)
[8] = target: RIPK2(h) (human, UniProt O43353 1-299, limits assumed)
[9] = target: ROCK-II(h) (human, UniProt O75116 11-552, limits assumed)
[10] = target: T2, SGK(h) (human, UniProt O00141 60-431, limits assumed)
T2 sequence (looked up): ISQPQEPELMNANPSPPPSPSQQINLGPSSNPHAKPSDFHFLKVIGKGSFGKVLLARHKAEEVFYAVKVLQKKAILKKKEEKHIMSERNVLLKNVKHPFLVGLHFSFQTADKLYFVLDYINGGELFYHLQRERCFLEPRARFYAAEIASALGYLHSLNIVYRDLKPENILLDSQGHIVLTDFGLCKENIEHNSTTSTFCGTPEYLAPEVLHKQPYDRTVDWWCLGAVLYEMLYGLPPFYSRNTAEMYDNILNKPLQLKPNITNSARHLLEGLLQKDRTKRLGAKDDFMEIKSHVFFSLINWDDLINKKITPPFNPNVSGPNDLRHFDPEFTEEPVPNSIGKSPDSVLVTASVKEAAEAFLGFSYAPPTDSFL

[11] = target: T3, SGK3(h) (human, UniProt Q96BR1 1-496, limits assumed)
T3 sequence (looked up): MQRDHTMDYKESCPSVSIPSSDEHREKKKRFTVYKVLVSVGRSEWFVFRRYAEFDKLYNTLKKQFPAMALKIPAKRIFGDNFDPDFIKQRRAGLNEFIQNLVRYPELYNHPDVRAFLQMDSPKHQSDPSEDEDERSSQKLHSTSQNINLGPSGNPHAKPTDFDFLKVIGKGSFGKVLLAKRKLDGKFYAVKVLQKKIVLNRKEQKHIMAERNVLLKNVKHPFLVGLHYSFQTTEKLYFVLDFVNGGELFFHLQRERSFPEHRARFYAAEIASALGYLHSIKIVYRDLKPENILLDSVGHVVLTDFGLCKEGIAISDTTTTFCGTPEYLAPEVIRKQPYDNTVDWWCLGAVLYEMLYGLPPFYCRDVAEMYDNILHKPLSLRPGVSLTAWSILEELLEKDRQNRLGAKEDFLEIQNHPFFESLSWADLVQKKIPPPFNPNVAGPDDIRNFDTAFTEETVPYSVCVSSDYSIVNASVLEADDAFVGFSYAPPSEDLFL

[12] = target: Yes(h) (human, UniProt P07947 1-543)
[13] = target: CDK6/cyclinD3(h) (human, UniProt Q00534 1-326; P30281 1-292)
[14] = target: CK1γ2(h) (human, UniProt P78368 1-415)
[15] = target: CSK(h) (human, UniProt P41240 1-450)
[16] = target: FGFR2(h) (human, UniProt P21802 456-770, limits assumed)
[17] = target: FGFR4(h) (human, UniProt P22455 460-802, limits assumed)
[18] = target: Fgr(h) (human, UniProt P09769 1-529)

AMPKα1(h), sequence (Q13131 whole entry): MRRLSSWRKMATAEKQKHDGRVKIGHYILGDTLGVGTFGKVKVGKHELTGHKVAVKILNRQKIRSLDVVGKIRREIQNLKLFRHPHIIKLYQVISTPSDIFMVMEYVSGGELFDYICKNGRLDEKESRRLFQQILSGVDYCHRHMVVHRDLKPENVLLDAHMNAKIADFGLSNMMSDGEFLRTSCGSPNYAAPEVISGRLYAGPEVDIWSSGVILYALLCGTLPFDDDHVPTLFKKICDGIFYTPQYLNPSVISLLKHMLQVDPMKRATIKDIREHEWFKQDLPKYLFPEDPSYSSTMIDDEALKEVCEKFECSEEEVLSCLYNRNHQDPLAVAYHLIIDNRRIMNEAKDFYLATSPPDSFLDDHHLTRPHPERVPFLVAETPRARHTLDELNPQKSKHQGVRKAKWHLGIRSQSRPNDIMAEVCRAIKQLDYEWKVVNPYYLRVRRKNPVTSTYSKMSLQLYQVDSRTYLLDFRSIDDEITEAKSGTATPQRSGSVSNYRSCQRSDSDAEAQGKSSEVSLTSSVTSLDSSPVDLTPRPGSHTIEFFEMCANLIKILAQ
PAK3(h), sequence (O75914 whole entry): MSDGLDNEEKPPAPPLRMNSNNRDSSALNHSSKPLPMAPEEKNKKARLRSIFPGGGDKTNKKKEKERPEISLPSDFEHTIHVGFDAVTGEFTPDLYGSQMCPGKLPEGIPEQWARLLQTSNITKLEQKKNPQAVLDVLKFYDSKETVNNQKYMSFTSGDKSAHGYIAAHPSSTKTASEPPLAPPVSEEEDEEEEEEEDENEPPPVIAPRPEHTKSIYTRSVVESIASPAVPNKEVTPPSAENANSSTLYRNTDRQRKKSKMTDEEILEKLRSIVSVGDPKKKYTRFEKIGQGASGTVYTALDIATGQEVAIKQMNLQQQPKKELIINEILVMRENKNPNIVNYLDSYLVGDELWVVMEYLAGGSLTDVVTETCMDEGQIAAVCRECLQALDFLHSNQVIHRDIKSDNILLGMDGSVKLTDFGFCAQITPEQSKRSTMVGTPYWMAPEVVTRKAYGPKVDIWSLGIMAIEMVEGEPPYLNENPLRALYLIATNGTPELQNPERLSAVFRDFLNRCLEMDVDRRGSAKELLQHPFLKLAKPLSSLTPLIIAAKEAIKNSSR
CDK6/cyclinD3(h), sequence (Q00534 whole entry, chain 1 of 2): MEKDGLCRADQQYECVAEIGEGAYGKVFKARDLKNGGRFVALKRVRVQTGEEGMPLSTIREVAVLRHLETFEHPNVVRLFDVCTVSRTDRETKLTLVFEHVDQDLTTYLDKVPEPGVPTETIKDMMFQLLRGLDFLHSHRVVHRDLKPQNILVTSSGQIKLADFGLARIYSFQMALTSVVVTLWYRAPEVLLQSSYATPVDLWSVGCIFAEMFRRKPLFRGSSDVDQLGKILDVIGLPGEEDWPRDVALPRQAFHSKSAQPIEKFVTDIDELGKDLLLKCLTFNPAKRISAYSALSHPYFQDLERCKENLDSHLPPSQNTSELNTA
CDK6/cyclinD3(h), sequence (P30281 whole entry, chain 2 of 2): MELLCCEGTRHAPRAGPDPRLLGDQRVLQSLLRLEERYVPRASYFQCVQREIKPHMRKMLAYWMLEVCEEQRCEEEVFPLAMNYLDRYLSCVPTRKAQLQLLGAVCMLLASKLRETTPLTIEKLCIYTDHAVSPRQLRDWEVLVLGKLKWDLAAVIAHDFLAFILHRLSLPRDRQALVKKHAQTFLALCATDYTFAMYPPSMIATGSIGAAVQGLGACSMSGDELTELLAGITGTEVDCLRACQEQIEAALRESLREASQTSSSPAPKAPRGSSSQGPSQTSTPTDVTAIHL
FGFR4(h), sequence (P22455 460-802 limits assumed): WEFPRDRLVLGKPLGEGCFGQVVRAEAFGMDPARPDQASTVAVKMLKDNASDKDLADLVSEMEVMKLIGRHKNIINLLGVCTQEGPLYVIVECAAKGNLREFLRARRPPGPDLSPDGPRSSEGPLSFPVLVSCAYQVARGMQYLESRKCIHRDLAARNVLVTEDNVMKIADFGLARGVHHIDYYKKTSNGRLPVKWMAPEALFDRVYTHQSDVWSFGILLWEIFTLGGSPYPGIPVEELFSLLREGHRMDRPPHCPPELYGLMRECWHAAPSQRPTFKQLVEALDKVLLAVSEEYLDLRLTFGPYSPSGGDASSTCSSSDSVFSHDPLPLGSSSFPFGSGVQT
Plk3(h), sequence (Q9H4B4 58-340 limits assumed): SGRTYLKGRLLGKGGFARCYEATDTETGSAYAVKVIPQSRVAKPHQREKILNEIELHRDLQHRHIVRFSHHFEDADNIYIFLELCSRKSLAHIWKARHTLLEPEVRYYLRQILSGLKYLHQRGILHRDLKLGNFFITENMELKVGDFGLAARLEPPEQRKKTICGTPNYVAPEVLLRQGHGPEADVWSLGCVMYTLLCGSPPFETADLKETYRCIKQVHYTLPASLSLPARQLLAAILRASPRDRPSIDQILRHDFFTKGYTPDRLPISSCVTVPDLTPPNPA
FGFR2(h), sequence (P21802 456-770 limits assumed): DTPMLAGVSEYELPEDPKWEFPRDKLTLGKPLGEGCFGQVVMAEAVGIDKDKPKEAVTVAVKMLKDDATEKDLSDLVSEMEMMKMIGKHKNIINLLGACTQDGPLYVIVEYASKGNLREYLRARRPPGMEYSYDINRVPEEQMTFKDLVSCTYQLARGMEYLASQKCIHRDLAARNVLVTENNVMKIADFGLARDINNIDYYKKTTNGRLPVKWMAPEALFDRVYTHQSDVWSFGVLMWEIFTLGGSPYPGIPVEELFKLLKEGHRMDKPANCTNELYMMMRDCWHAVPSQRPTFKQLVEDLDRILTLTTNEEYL
PKCβII(h), sequence (P05771 other isoform, or with tags, fused parts or gaps): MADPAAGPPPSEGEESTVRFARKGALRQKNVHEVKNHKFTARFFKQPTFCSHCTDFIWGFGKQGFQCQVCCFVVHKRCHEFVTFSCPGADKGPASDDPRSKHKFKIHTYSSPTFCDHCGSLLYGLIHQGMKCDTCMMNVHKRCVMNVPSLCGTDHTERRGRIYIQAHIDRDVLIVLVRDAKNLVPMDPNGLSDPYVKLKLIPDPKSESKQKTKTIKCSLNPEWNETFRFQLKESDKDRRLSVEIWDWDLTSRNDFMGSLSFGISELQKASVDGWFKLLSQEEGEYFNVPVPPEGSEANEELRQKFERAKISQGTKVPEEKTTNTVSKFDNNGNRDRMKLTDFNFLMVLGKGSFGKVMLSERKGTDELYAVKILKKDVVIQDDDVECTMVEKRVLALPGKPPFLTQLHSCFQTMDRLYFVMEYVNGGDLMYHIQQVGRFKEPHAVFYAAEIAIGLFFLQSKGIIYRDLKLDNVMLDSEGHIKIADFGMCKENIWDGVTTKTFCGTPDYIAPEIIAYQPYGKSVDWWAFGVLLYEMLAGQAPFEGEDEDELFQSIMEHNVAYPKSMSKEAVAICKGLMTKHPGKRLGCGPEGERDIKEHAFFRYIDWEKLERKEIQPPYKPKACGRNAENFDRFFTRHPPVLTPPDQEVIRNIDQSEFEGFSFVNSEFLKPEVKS
ROCK-II(h), sequence (O75116 11-552 limits assumed): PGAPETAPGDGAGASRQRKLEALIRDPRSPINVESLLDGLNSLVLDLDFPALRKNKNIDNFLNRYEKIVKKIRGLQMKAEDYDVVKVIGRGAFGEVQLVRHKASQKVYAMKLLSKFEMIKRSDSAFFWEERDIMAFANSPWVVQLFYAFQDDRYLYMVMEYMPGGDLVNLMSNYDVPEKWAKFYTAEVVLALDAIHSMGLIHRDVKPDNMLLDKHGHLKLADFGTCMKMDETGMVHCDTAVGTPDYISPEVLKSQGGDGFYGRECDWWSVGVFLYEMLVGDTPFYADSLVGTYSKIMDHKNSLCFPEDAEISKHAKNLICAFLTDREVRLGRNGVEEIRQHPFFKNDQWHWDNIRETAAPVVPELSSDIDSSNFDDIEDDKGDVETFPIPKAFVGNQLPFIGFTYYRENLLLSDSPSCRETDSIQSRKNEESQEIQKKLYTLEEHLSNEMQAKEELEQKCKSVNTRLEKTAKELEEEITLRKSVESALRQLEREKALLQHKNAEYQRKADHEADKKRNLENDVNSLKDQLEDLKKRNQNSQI
CSK(h), sequence (P41240 whole entry): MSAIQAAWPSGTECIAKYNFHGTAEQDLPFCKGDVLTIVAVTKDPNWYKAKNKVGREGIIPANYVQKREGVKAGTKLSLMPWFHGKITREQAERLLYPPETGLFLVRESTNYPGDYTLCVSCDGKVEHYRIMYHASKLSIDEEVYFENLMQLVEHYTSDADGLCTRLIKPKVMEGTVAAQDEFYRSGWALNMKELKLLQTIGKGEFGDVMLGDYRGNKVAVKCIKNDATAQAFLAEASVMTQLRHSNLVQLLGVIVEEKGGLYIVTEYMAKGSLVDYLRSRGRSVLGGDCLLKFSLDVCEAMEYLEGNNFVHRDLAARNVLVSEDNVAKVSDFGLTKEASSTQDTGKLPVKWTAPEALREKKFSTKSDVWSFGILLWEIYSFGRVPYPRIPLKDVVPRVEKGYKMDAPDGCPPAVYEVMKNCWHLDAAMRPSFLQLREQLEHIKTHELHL
RIPK2(h), sequence (O43353 1-299 limits assumed): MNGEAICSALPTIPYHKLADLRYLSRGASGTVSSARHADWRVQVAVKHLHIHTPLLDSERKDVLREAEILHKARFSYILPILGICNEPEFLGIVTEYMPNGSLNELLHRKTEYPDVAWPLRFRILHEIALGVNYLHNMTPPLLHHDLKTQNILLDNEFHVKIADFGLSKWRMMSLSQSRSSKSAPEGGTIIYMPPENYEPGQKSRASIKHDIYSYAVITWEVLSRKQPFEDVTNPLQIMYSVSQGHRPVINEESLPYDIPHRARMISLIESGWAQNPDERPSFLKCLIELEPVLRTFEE

Binder: KAFAKLAARLYRKALARQLGVAA [MMI-0400]
- % activity, 100 µM [1]: 87%
- % activity, 100 µM [2]: 11%
- % activity, 100 µM [3]: 121%
- % activity, 100 µM [4]: 28%
- % activity, 100 µM [5]: 75%
- % activity, 100 µM [6]: 79%
- % activity, 100 µM [7]: 129%
- % activity, 100 µM [8]: 98%
- % activity, 100 µM [9]: 77%
- % activity, 100 µM [10]: 54%
- % activity, 100 µM [11]: 8%
- % activity, 100 µM [12]: 14%
- % activity, 100 µM [13]: 85%
- % activity, 100 µM [14]: 114%
- % activity, 100 µM [15]: 16%
- % activity, 100 µM [16]: 18%
- % activity, 100 µM [17]: 19%
- % activity, 100 µM [18]: 47%

Binder: FAKLAARLYRKALARQLGVAA [MMI-0300]
- % activity, 100 µM [1]: 71%
- % activity, 100 µM [2]: 19%
- % activity, 100 µM [3]: 140%
- % activity, 100 µM [4]: 29%
- % activity, 100 µM [5]: 82%
- % activity, 100 µM [6]: 89%
- % activity, 100 µM [7]: 127%
- % activity, 100 µM [8]: 97%
- % activity, 100 µM [9]: 74%
- % activity, 100 µM [10]: 48%
- % activity, 100 µM [11]: 10%
- % activity, 100 µM [12]: 67%
- % activity, 100 µM [13]: 86%
- % activity, 100 µM [14]: 123%
- % activity, 100 µM [15]: 49%
- % activity, 100 µM [16]: 14%
- % activity, 100 µM [17]: 28%
- % activity, 100 µM [18]: 60%

Source: patent US20140072613A1 (published 2014)
